Data as given in US20220135701A1 (Genentech, published 2022).

Assays:
Assay in all cases: SPR BIAcore T200, Ab captured, 37C
human MerTK = biological target: T1, human MerTK (human, UniProt Q12866 26-499)
T1 construct: also called HuMER
T1 sequence: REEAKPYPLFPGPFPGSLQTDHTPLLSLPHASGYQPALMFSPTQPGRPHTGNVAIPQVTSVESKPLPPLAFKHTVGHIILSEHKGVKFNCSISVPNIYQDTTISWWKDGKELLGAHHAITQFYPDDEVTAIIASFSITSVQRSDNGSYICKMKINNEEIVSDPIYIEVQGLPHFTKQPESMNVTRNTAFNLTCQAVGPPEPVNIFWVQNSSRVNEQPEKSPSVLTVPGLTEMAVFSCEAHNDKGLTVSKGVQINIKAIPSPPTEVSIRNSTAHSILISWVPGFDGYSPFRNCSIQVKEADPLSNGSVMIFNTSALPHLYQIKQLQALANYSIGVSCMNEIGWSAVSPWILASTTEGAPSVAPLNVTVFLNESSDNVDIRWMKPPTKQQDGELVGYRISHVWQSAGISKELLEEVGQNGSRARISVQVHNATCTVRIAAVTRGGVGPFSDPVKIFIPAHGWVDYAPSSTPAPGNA
Protocol: (§1) Each rabbit and humanized antibody was subjected to a binding assay to determine its affinity to MerTK derived from various species.
(§2) All binding affinity determinations were obtained using Surface Plasmon Resonance (SPR) measurements from a BIAcore™-T200 instrument. Briefly, each rabbit or humanized antibody was captured to achieve approximately 100 RU (Response Units). Then, 3-fold serial dilutions of MerTK from various species (0.4 nM to 100 nM) diluted in HBS-EP buffer (0.01M HEPES pH 7.4, 0.15M NaCl, 3 mM EDTA and 0.05% v/v surfactant P20) was injected into the BIAcore™-T200 instrument at 25° C. or 37° C. with a flow rate of 30 μl/min. Association rates (kₒₙ) and dissociation rates (koff) were calculated using a simple one-to-one Langmuir binding model (BIAcore T200 evaluation software version 2.0). The equilibrium dissociation constant (KD) was calculated as the ratio koff/kₒₙ.

cynomolgus monkey MerTK = biological target: T2, cynomolgus monkey MerTK (cynomolgus monkey, UniProt A0A2K5V1H9 32-505)
T2 construct: Soluble analyte in SPR; also called Cyno MerTK
T2 sequence: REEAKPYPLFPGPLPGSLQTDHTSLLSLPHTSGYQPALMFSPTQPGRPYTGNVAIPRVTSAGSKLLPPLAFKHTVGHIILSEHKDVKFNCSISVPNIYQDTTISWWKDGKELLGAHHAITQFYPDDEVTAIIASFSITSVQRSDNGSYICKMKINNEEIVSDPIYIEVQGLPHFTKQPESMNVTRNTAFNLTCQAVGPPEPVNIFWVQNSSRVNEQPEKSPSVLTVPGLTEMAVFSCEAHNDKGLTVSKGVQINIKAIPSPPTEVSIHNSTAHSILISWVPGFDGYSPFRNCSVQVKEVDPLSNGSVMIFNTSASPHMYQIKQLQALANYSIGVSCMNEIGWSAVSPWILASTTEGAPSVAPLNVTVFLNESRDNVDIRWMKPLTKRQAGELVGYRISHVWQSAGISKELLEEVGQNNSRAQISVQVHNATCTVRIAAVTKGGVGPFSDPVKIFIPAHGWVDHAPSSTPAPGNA
Protocol: as §1, §2

rat MerTK = biological target: T3, rat MerTK (rat, UniProt P57097 23-496, limits assumed)
T3 construct: Soluble analyte in SPR
T3 sequence (looked up): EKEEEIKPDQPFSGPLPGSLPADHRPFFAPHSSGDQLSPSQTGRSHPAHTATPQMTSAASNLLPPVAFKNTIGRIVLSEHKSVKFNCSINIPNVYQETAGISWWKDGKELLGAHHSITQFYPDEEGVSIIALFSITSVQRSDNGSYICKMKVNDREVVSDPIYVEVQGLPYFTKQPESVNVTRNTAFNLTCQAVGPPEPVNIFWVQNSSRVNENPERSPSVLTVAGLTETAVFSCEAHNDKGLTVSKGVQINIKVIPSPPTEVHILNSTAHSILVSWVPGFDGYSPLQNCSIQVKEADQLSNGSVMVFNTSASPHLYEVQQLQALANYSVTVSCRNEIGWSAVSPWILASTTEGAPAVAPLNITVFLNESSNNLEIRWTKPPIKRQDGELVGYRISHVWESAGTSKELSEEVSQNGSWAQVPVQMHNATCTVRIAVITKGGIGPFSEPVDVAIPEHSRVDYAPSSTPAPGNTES
Protocol: as §1, §2

mouse MerTK = biological target: T4, mouse MerTK (mouse, UniProt Q60805 23-496)
T4 construct: also called MuMER
T4 sequence (looked up): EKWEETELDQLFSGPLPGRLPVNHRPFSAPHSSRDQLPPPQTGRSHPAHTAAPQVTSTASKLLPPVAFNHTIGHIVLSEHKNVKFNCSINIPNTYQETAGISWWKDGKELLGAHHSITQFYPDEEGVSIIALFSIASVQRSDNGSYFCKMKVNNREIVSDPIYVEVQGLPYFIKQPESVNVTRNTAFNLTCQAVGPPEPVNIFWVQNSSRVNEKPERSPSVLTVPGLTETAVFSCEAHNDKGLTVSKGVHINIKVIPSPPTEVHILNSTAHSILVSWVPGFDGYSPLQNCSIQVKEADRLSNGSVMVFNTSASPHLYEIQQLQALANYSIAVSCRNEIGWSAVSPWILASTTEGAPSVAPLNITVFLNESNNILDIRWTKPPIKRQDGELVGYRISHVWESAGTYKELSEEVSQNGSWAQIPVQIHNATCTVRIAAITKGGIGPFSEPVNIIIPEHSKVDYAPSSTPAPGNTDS
Protocol: as §1, §2

- Kd (human MerTK): 4.9 nM
- Kd (cynomolgus monkey MerTK): 2.1 nM
- Kd (rat MerTK): 3.2 nM
- Kd (mouse MerTK): 1.4 nM
B1: h10F7.v16 (antibody, V domains shown)
VH: EVQLVESGGGLVQPGGSLRLSCAVSGFSLSGYAMSWVRQAPGKGLEYIGVISSSGSSYYPSWAKGRFTISKDNSKNTLYLQMGSLRAEDMAVYYCARVQFYVGYAVYGYGIIDRLDLWGQGTLVTVSS
VL: DIVLTQSPDSLAVSLGERATINCQSSKSVYNNNWLSWYQQKPGQPPKLLIYRASTLESGVPDRFSGSGSGTDFTLTISSLQAEDVAVYFCAGGYSSSSSANAFGGGTKVEIK
notes: Humanized, human IgG1; also called 10F7 Fully Humanized; 10F7 Humanized polished mAb
